Test results published in patent publication US20220265711A1 (NANJING LEGEND BIOTECH, published 2022).
One block for each binder: values may come before it.

Key:
human CD4 = human CD4 (human, UniProt P01730 26-458); assay: cell-based or functional assay
HEK293-6E/domain5 = biological target: T1, HEK293-6E/domain5 (Mus musculus;Homo sapiens, UniProt P06332;P01730); assay: flow cytometry on HEK293-6E cells expressing mouse CD4 with human CD4 domain 5 (intracellular), against isotype control
T1 construct: full-length backbone without its own intracellular domain;single domain inserted in the mouse backbone; transiently expressed on HEK-293 cells; the human part is intracellular, the extracellular part is mouse CD4; also called hybrid CD4 protein: mouse CD4 backbone with human CD4 intracellular domain; D5
T1 sequence (P06332 other isoform, or with tags, fused parts or gaps limits assumed): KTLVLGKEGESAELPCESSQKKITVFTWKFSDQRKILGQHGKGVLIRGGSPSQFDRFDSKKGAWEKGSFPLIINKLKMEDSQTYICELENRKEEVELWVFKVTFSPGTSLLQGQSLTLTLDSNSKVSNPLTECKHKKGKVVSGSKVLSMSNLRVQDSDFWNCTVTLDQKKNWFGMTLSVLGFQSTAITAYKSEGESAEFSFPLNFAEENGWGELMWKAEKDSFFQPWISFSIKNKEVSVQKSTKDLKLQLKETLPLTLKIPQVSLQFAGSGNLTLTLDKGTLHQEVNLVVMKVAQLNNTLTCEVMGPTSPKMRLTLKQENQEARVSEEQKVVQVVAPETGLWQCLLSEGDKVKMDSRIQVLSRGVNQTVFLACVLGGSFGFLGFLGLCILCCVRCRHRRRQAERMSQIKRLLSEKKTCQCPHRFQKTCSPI
Description: (§1) CD4 is a member of immunoglobulin superfamily. It contains four extracellular immunoglobulin domains, Domain 1 to 4 from distal to proximal to cell membrane. The four CD4 extracellular domains and its intracellular domain were named D1-D5 and were expressed transiently with a mouse CD4 backbone in HEK-293 cells. The three antibodies were used to detect human CD4 D1-D5 expression by flow cytometry on these 293 cells.

[1] = biological target: T2, hybrid CD4 protein: mouse CD4 backbone with human CD4 Domain 1 (human; mouse, UniProt P06332 129-457, limits assumed); assay: flow cytometry on HEK293-6E cells expressing mouse CD4 with human CD4 domain 1, against isotype control
T2 construct: Transiently expressed on HEK-293 cells from the pcDNA3.4 vector; also called D1
T2 sequence (P06332 other isoform, or with tags, fused parts or gaps limits assumed): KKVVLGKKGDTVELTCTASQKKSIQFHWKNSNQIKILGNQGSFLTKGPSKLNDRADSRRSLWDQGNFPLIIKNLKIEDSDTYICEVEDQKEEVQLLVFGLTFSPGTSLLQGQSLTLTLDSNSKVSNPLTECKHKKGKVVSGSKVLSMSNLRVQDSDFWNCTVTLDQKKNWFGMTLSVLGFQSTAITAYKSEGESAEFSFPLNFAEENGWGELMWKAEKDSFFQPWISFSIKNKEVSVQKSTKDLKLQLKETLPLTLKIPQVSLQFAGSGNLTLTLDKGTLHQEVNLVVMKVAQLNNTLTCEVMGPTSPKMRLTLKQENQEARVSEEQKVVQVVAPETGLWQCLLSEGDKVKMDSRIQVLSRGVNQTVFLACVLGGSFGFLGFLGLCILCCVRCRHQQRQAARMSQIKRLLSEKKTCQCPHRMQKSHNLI
Description: as §1

B1: CAR No. 4 (anti-CD4 chimeric antigen receptor, scFv derived from SK3) (other)
chain: QVQLQQSGPELVKPGASVKMSCKASGYTFTDYVINWVKQRTGQGLEWIGETYTGSGSSYYNEKFKDKATLTVDKASNIAYMQLSSLTSEDSAVYFCARRGKGTGFAFWGQGTLVTVSAGGGGSGGGGSGGGGSDIVLTQSPASLAVSLGQRATISCKASQSVDYDGDSYMNWYQQKPGQPPKLLIYAASNLESGIPARFTGSGSGTDFTLNIHPVEEEDTATYYCQQSYEDPPTFAGGTNLEIKTTTPAPRPPTPAPTIASQPLSLRPEACRPAAGGAVHTRGLDFACDIYIWAPLAGTCGVLLLSLVITLYCKRGRKKLLYIFKQPFMRPVQTTQEEDGCSCRFPEEEEGGCELRVKFSRSADAPAYKQGQNQLYNELNLGRREEYDVLDKRRGRDPEMGGKPRRKNPQEGLYNELQKDKMAEAYSEIGMKGERRRGKGHDGLYQGLSTATKDTYDALHMQALPPR
- CD4+ cells in the effector population after 24 h co-culture (18.9% in UNT control) (human CD4): 0%

B3: CAR No. 6 (anti-CD4 chimeric antigen receptor) (other)
chain: QIQLVQSGPELKKPGETVKISCKASGYTFTNYGMNWVKQAPGKGLKCMGWINTNTGEPTYAEEFKGRFAFSLETSATTAFLQINNLKDEDTATYFCARLGLYYDYGYYAMDYWGQGASVTVSSGGGGSGGGGSGGGGSNIVLTQSPASLAVSLGQRATISCRASESVDSYGNSFMHWYQQKPGQPPKLFIYLASNLESGVPARFSGSGSRTDFTLTIDPVEADDAATYYCQQNNEDPYTFGGGTKLEIKTTTPAPRPPTPAPTIASQPLSLRPEACRPAAGGAVHTRGLDFACDIYIWAPLAGTCGVLLLSLVITLYCKRGRKKLLYIFKQPFMRPVQTTQEEDGCSCRFPEEEEGGCELRVKFSRSADAPAYKQGQNQLYNELNLGRREEYDVLDKRRGRDPEMGGKPRRKNPQEGLYNELQKDKMAEAYSEIGMKGERRRGKGHDGLYQGLSTATKDTYDALHMQALPPR
- CD4+ cells in the effector population after 24 h co-culture (18.9% in UNT control) (human CD4): 13.1%

B5: CAR No. 3 (anti-CD4 chimeric antigen receptor, Tregalizumab VH/VL) (other)
chain: EEQLVESGGGLVKPGGSLRLSCAASGFSFSDCRMYWLRQAPGKGLEWIGVISVKSENYGANYAESVRGRFTISRDDSKNTVYLQMNSLKTEDTAVYYCSASYYRYDVGAWFAYWGQGTLVTVSSAGGGGSGGGGSGGGGSDIVMTQSPDSLAVSLGERATINCRASKSVSTSGYSYIYWYQQKPGQPPKLLIYLASILESGVPDRFSGSGSGTDFTLTISSLQAEDVAVYYCQHSRELPWTFGQGTKVEIKRTTTPAPRPPTPAPTIASQPLSLRPEACRPAAGGAVHTRGLDFACDIYIWAPLAGTCGVLLLSLVITLYCKRGRKKLLYIFKQPFMRPVQTTQEEDGCSCRFPEEEEGGCELRVKFSRSADAPAYKQGQNQLYNELNLGRREEYDVLDKRRGRDPEMGGKPRRKNPQEGLYNELQKDKMAEAYSEIGMKGERRRGKGHDGLYQGLSTATKDTYDALHMQALPPR
- CD4+ cells in the effector population after 24 h co-culture (18.9% in UNT control) (human CD4): 12.5%

Second part, the binder after the results:

- binding result (HEK293-6E/domain5): no binding
- binding result [1]: no binding
B2: Tregalizumab (antibody, V domains shown)
VH: EEQLVESGGGLVKPGGSLRLSCAASGFSFSDCRMYWLRQAPGKGLEWIGVISVKSENYGANYAESVRGRFTISRDDSKNTVYLQMNSLKTEDTAVYYCSASYYRYDVGAWFAYWGQGTLVTVSS
VL: DIVMTQSPDSLAVSLGERATINCRASKSVSTSGYSYIYWYQQKPGQPPKLLIYLASILESGVPDRFSGSGSGTDFTLTISSLQAEDVAVYYCQHSRELPWTFGQGTKVEIKR
notes: also called Tregalizumab monoclonal antibody

- binding result (HEK293-6E/domain5): no binding
- binding result [1]: no binding
B4: Ibalizumab (antibody, V domains shown)
VH: QVQLQQSGPEVVKPGASVKMSCKASGYTFTSYVIHWVRQKPGQGLDWIGYINPYNDGTDYDEKFKGKATLTSDTSTSTAYMELSSLRSEDTAVYYCAREKDNYATGAWFAYWGQGTLVTVSS
VL: DIVMTQSPDSLAVSLGERVTMNCKSSQSLLYSTNQKNYLAWYQQKPGQSPKLLIYWASTRESGVPDRFSGSGSGTDFTLTISSVQAEDVAVYYCQQYYSYRTFGGGTKLEIKR
notes: also called Ibalizumab monoclonal antibody
